B1: PSMA.302 (bispecific antibody, V domains shown)
VH: QVQLVESGGGVVQPGRSLRLSCAASGRTFGIYVWGWFRQAPGKEREFVGAISWSGSNRKVSDSVKGRFTISRDNSKNTLYLQMNSLRAEDTAVYFCAASNKLYGRTWYDFNESDYWGQGTQVTVSS
notes: TCE with CD3.23; also called AC3704
B2: PSMA.310 (bispecific antibody, V domains shown)
VH: QVQLVESGGGVVQPGRSLRLSCAASGRTFGIYVMGWFRQAPGKEREFVGAISWSGSNRKVSDSVKGRFTISRDNSKNTLYLQMNSLRAEDTAVYYCGGSNKLYGRTWYDFNESDYWGQGTQVTVSS
notes: TCE with CD3.23; also called AC3712
B3: PSMA.315 (bispecific antibody, V domains shown)
VH: QVQLVESGGGVVQPGRSLRLSCAASGRTFGIYVMGWFRQAPGKEREFVGAISWSGSNRKVSDSVKGRFTISRDNSKNTLYLQMNSLRAEDTAVYYCAASNKEYGRTWYDFNESDYWGQGTQVTVSS
notes: TCE with CD3.23; also called AC3717
B4: PSMA.323 (bispecific antibody, V domains shown)
VH: QVQLVESGGGVVQPGRSLRLSCAASGRTFGIYVMGWFRQAPGKEREFVGAISWSGSNRKVSDSVKGRFTISRDNSKNTLYLQMNSLRAEDTAVTYCAGSNKLYGRTWYDFNESDYWGQGTQVTVSS
notes: TCE with CD3.23; also called AC3725
B5: PSMA.318 (bispecific antibody, V domains shown)
VH: QVQLVESGGGVVQPGRSLRLSCAASGRTFGIYVMGWFRQAPGKEREFVGAISWSGSNRKVSDSVKGRFTISRDNSKNTLYLQMNSLRAEDTAVRYCAGSNKLYGRTWYDFNESDYWGQGTQVTVSS
notes: TCE with CD3.23; also called AC3720
B6: PSMA.307 (bispecific antibody, V domains shown)
VH: QVQLVESGGGVVQPGRSLRLSCAASGRTFGIYVWGWFRQAPGKEREFVGAMSWSGSNRKVSDSVKGRFTISRDNSKNTLYLQMNSLRAEDTAVYYCAASNKLYGRTWYDFNESDYWGQGTQVTVSS
notes: TCE with CD3.23; also called AC3709
B7: PSMA.313 (bispecific antibody, V domains shown)
VH: QVQLVESGGGVVQPGRSLRLSCAASGRTFGIYVMGWFRQAPGKEREFVGAISWSGSNRKVSDSVKGRFTISRDNSKNTLYLQMNSLRAEDTAVYYCAASNKRYGRTWYDFNESDYWGQGTQVTVSS
notes: TCE with CD3.23; also called AC3715
B8: PSMA.303 (bispecific antibody, V domains shown)
VH: QVQLVESGGGVVQPGRSLRLSCAASGRTFGIYVMGWFRQAPGKEREFVGAMSWSGSNRKVSDSVKGRFTISRDNSKNTLYLQMNSLRAEDTAVYFCAASNKLYGRTWYDFNESDYWGQGTQVTVSS
notes: TCE with CD3.23; also called AC3705
B9: PSMA.325 (bispecific antibody, V domains shown)
VH: QVQLVESGGGVVQPGRSLRLSCAASGRTFGIYVMGWFRQAPGKEREFVGAISWSGSNRKVSDSVKGRFTISRDNSKNTLYLQMNSLRAEDTAVRFCAASNKLYGRTWYDFNESDYWGQGTQVTVSS
notes: TCE with CD3.23; also called AC3727
B10: PSMA.304 (bispecific antibody, V domains shown)
VH: QVQLVESGGGVVQPGRSLRLSCAASGRTFGIYVWGWFRQAPGKEREFVGAMSWSGSNRKVSDSVKGRFTISRDNSKNTLYLQMNSLRAEDTAVYFCAASNKLYGRTWYDFNESDYWGQGTQVTVSS
notes: TCE with CD3.23; also called AC3706
B11: PSMA.319 (bispecific antibody, V domains shown)
VH: QVQLVESGGGVVQPGRSLRLSCAASGRTFGIYVMGWFRQAPGKEREFVGAISWSGSNRKVSDSVKGRFTISRDNSKNTLYLQMNSLRAEDTAVNYCAGSNKLYGRTWYDFNESDYWGQGTQVTVSS
notes: TCE with CD3.23; also called AC3721
B12: PSMA.332 (bispecific antibody, V domains shown)
VH: QVQLVESGGGVVQPGRSLRLSCAASGRTFGIYVMGWFRQAPGKEREFVGAISWSGSNRKVSDSVKGRFTISRDNSKNTLYLQMNSLRAEDTAVYFCAGSNKLYGRTWYDFNESDYWGQGTQVTVSS
notes: TCE with CD3.23; also called AC3734
B13: PSMA.327 (bispecific antibody, V domains shown)
VH: QVQLVESGGGVVQPGRSLRLSCAASGRTFGIYVMGWFRQAPGKEREFVGAISWSGSNRKVSDSVKGRFTISRDNSKNTLYLQMNSLRAEDTAVDFCAASNKLYGRTWYDFNESDYWGQGTQVTVSS
notes: TCE with CD3.23; also called AC3729
B14: PSMA.312 (bispecific antibody, V domains shown)
VH: QVQLVESGGGVVQPGRSLRLSCAASGRTFGIYVMGWFRQAPGKEREFVGAISWSGSNRKVSDSVKGRFTISRDNSKNTLYLQMNSLRAEDTAVYYCGASNKLYGRTWYDFNESDYWGQGTQVTVSS
notes: TCE with CD3.23; also called AC3714
B15: PSMA.317 (bispecific antibody, V domains shown)
VH: QVQLVESGGGVVQPGRSLRLSCAASGRTFGIYVMGWFRQAPGKEREFVGAISWSGSNRKVSDSVKGRFTISRDNSKNTLYLQMNSLRAEDTAVAYCAGSNKLYGRTWYDFNESDYWGQGTQVTVSS
notes: TCE with CD3.23; also called AC3719
B16: PSMA.333 (bispecific antibody, V domains shown)
VH: QVQLVESGGGVVQPGRSLRLSCAASGRTFGIYVMGWFRQAPGKEREFVGAISWSGSNRKVSDSVKGRFTISRDNSKNTLYLQMNSLRAEDTAVYFCAASNKRYGRTWYDFNESDYWGQGTQVTVSS
notes: TCE with CD3.23; also called AC3735
B17: PSMA.305 (bispecific antibody, V domains shown)
VH: QVQLVESGGGVVQPGRSLRLSCAASGRTFGIYVWGWFRQAPGKEREFVGAISWSGSNRKVSDSVKGRFTISRDNSKNTLYLQMNSLRAEDTAVYYCAASNKLYGRTWYDFNESDYWGQGTQVTVSS
notes: TCE with CD3.23; also called AC3707
B18: PSMA.309 (bispecific antibody, V domains shown)
VH: QVQLVESGGGVVQPGRSLRLSCAASGRTFGIYVWGWFRQAPGKEREFVGAMSWSGSNRKVSDSVKGRFTISRDNSKNTLYLQMNSLRAEDTAVYFCAASNKWYGRTWYDFNESDYWGQGTQVTVSS
notes: TCE with CD3.23; also called AC3711
B19: PSMA.316 (bispecific antibody, V domains shown)
VH: QVQLVESGGGVVQPGRSLRLSCAASGRTFGIYVMGWFRQAPGKEREFVGAISWSGSNRKVSDSVKGRFTISRDNSKNTLYLQMNSLRAEDTAVYYCAASNKGYGRTWYDFNESDYWGQGTQVTVSS
notes: TCE with CD3.23; also called AC3718
B20: PSMA.330 (bispecific antibody, V domains shown)
VH: QVQLVESGGGVVQPGRSLRLSCAASGRTFGIYVMGWFRQAPGKEREFVGAISWSGSNRKVSDSVKGRFTISRDNSKNTLYLQMNSLRAEDTAVSFCAASNKLYGRTWYDFNESDYWGQGTQVTVSS
notes: TCE with CD3.23; also called AC3732
B21: PSMA.331 (bispecific antibody, V domains shown)
VH: QVQLVESGGGVVQPGRSLRLSCAASGRTFGIYVMGWFRQAPGKEREFVGAISWSGSNRKVSDSVKGRFTISRDNSKNTLYLQMNSLRAEDTAVYFCGASNKLYGRTWYDFNESDYWGQGTQVTVSS
notes: TCE with CD3.23; also called AC3733
B22: PSMA.328 (bispecific antibody, V domains shown)
VH: QVQLVESGGGVVQPGRSLRLSCAASGRTFGIYVMGWFRQAPGKEREFVGAISWSGSNRKVSDSVKGRFTISRDNSKNTLYLQMNSLRAEDTAVGFCAASNKLYGRTWYDFNESDYWGQGTQVTVSS
notes: TCE with CD3.23; also called AC3730
B23: PSMA.329 (bispecific antibody, V domains shown)
VH: QVQLVESGGGVVQPGRSLRLSCAASGRTFGIYVMGWFRQAPGKEREFVGAISWSGSNRKVSDSVKGRFTISRDNSKNTLYLQMNSLRAEDTAVKFCAASNKLYGRTWYDFNESDYWGQGTQVTVSS
notes: TCE with CD3.23; also called AC3731
B24: PSMA.311 (bispecific antibody, V domains shown)
VH: QVQLVESGGGVVQPGRSLRLSCAASGRTFGIYVMGWFRQAPGKEREFVGAISWSGSNRKVSDSVKGRFTISRDNSKNTLYLQMNSLRAEDTAVDYCAASNKLYGRTWYDFNESDYWGQGTQVTVSS
notes: TCE with CD3.23; also called AC3713
B25: PSMA.320 (bispecific antibody, V domains shown)
VH: QVQLVESGGGVVQPGRSLRLSCAASGRTFGIYVMGWFRQAPGKEREFVGAISWSGSNRKVSDSVKGRFTISRDNSKNTLYLQMNSLRAEDTAVGYCAGSNKLYGRTWYDFNESDYWGQGTQVTVSS
notes: TCE with CD3.23; also called AC3722
B26: PSMA.321 (bispecific antibody, V domains shown)
VH: QVQLVESGGGVVQPGRSLRLSCAASGRTFGIYVMGWFRQAPGKEREFVGAISWSGSNRKVSDSVKGRFTISRDNSKNTLYLQMNSLRAEDTAVKYCAGSNKLYGRTWYDFNESDYWGQGTQVTVSS
notes: TCE with CD3.23; also called AC3723
B27: PSMA.322 (bispecific antibody, V domains shown)
VH: QVQLVESGGGVVQPGRSLRLSCAASGRTFGIYVMGWFRQAPGKEREFVGAISWSGSNRKVSDSVKGRFTISRDNSKNTLYLQMNSLRAEDTAVSYCAGSNKLYGRTWYDFNESDYWGQGTQVTVSS
notes: TCE with CD3.23; also called AC3724
B28: PSMA.326 (bispecific antibody, V domains shown)
VH: QVQLVESGGGVVQPGRSLRLSCAASGRTFGIYVMGWFRQAPGKEREFVGAISWSGSNRKVSDSVKGRFTISRDNSKNTLYLQMNSLRAEDTAVNFCAASNKLYGRTWYDFNESDYWGQGTQVTVSS
notes: TCE with CD3.23; also called AC3728
B29: PSMA.308 (bispecific antibody, V domains shown)
VH: QVQLVESGGGVVQPGRSLRLSCAASGRTFGIYVWGWFRQAPGKEREFVGAMSWSGSNRKVSDSVKGRFTISRDNSKNTLYLQMNSLRAEDTAVYYCAASNKWYGRTWYDFNESDYWGQGTQVTVSS
notes: TCE with CD3.23; also called AC3710
B30: PSMA.324 (bispecific antibody, V domains shown)
VH: QVQLVESGGGVVQPGRSLRLSCAASGRTFGIYVMGWFRQAPGKEREFVGAISWSGSNRKVSDSVKGRFTISRDNSKNTLYLQMNSLRAEDTAVAFCAASNKLYGRTWYDFNESDYWGQGTQVTVSS
notes: TCE with CD3.23; also called AC3726
B31: PSMA.314 (bispecific antibody, V domains shown)
VH: QVQLVESGGGVVQPGRSLRLSCAASGRTFGIYVMGWFRQAPGKEREFVGAISWSGSNRKVSDSVKGRFTISRDNSKNTLYLQMNSLRAEDTAVYYCAASNKDYGRTWYDFNESDYWGQGTQVTVSS
notes: TCE with CD3.23; also called AC3716

The experiment deals with T1, human PSMA (human, UniProt Q04609 44-750, limits assumed).
T1 construct: also called huPSMA; hPSMA
T1 sequence (Q04609 44-750 limits assumed): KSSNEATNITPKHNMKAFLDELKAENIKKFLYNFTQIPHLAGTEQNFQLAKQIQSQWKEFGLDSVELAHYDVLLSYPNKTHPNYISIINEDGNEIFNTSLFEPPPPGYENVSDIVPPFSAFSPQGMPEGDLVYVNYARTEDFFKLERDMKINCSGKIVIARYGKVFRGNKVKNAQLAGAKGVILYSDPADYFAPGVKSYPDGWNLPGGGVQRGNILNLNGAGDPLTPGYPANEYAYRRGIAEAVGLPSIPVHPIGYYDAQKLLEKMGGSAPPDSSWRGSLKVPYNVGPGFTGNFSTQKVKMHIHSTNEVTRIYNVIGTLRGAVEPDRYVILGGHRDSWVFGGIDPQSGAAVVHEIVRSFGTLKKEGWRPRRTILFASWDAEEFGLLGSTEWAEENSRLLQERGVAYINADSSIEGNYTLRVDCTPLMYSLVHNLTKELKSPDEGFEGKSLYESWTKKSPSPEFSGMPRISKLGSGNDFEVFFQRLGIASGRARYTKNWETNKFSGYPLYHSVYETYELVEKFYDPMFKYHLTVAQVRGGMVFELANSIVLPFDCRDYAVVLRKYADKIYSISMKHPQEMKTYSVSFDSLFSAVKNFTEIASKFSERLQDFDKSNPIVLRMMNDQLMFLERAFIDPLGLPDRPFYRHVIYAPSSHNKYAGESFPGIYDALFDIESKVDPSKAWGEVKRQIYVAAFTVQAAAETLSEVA
Nature of the experiment: binding screen.
On to B1, for which the affinity, expressed as Kd, was 2.8 nM.
B2: the Kd (in general, a measure of binding affinity in units of concentration) stood at 23.1 nM.
With B3, binding was put at a Kd of 24.2 nM.
With B4, the binding result is “no binding”.
With B5, the binding result was “no binding”.
For B6, binding was characterised by a dissociation constant (Kd) of 6 nM.
B7: the binding result is “no binding”.
B8 showed a Kd of 10.3 nM.
For the molecule B9, the binding result is “no binding”.
Regarding B10, the Kd turned out to be 5.9 nM.
With B11, the binding result is “no binding”.
As for B12, binding was characterised by a dissociation constant (Kd) of 24.1 nM.
Take B13: the binding result is given as “no binding”.
Turning to B14, binding was put at a Kd of 12 nM.
With B15, the binding result was “no binding”.
Same read-out and setting: under B16 stands “no binding”; under B17, “binds”.
B18 had a Kd of 8.5 nM.
Consider B19, for which binding was put at a Kd of 150 nM.
As to B20, the binding result was “no binding”.
B21: the affinity, expressed as Kd, was 12.1 nM.
With B22, the binding result is given as “no binding”.
Regarding B23, the binding result is “no binding”.
The same measure, in the same setting: under B24 stands “no binding”; under B25, “no binding”; under B26, “no binding”.
As to B27, the binding result was “no binding”.
B28: the binding result was “no binding”.
Take B29: the Kd came out at 8.8 nM.
In the case of B30, the binding result is “no binding”.
Turning to B31, binding was put at a Kd of 69.9 nM.

Values taken from patent publication US20260055205A1 (published 2026).
